Experiment [1] concerns the target T1, Human Id2: Histidine (human, UniProt Q02363 1-134, limits assumed).
T1 construct: Fusion protein made in E. coli from vector pGW07; also called h-Id2: His; not shown: His tag
T1 sequence (looked up): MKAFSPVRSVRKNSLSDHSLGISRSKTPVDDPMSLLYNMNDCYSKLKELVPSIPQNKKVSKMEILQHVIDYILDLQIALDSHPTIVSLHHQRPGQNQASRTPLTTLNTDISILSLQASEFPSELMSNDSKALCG
As to the kind of experiment: ELISA, Ab 0.050 µg/ml.

The target of experiment [2] is T2, Human Id3: Histidine (human, UniProt Q02535 1-119 at identity 1.00)).
T2 construct: Fusion protein made in E. coli from vector pGW07; also called h-Id3: His; Human Id3 (coated wells); not shown: His tag
T2 chain: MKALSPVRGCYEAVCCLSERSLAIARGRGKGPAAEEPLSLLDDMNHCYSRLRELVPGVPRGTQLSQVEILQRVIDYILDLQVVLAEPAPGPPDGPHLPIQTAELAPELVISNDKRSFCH
As to the kind of experiment: ELISA, Ab 0.050 µg/ml. Background: In an ELISA, binding on a coated surface is turned into a signal by an enzyme label.

In experiment [3] the target is T3, Mouse Id3: Histidine (mouse, UniProt P41133 1-119).
T3 construct: Fusion protein made in E. coli from vector pGW07; also called m-Id3: His; Mouse Id3 (coated wells); not shown: His tag
T3 sequence: T2 chain with G31S, A33S, A34T, A105T, N112K
As to the kind of experiment: ELISA, Ab 0.050 µg/ml.

The target in experiment [4] is T4, Mouse Id2: Histidine (mouse, UniProt P41136 1-134, limits assumed).
T4 construct: Fusion protein made in E. coli from vector pGW07; also called m-Id2: His; not shown: His tag
T4 sequence (looked up): T1 sequence (looked up) with S60T, A131V
The experiment in a line: ELISA, Ab 0.050 µg/ml.

The target in experiment [5] is T5, Human Id1: Histidine (human, UniProt P41134 1-155, limits assumed).
T5 construct: Fusion protein made in E. coli from vector pGW07; also called h-Id1: his; not shown: His tag
T5 sequence (looked up): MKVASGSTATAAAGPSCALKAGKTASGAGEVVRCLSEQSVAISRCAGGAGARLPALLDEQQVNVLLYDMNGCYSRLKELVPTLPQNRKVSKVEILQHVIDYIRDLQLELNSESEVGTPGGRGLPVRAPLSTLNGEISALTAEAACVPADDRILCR
As to the kind of experiment: ELISA, Ab 0.050 µg/ml.

The target of experiment [6] is T6, Mouse Id1: Histidine (mouse, UniProt P20067-2 1-148, limits assumed).
T6 construct: Fusion protein made in E. coli from vector pGW07; also called m-Id1-His; not shown: His tag
T6 sequence (looked up): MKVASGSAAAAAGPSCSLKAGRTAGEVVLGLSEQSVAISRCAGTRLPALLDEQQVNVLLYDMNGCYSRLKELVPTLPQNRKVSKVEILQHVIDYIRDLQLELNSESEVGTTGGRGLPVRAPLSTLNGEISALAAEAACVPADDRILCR
The experiment in a line: ELISA, Ab 0.050 µg/ml.

Experiment [7] has as its target T1, Human Id2: Histidine. As to the kind of experiment: ELISA, positive control (stated to be BCH-4/6-1) 0.25 µg/ml. As to the method: (§1) 1. Dispense 100 μL of antibody diluent, diluted rabbit monoclonal human Id3, and mouse/human Id3 hybridoma supernatants into appropriate wells. […] 2. Incubate at room temperature with mechanical shaking at 750 rpm for 90 minutes. [0165] 3. Remove the incubation mixture by flicking plate content into an appropriate waste container followed by rinsing the wells 5 times with distilled water. [0166] 4. Strike the wells sharply onto absorbent paper or paper towels to remove all residual water droplets. [0167] 5. Dispense 100 μL of 1:50,000 Goat Anti-Rabbit IgG-HRP Conjugate Reagent into each well. Gently mix for 5 seconds. [0168] 6. Incubate at room temperature with mechanical shaking at 750 rpm for 90 minutes. [0169] 7. Repeat procedures 3 and 4. [0170] 8. Dispense 100 μL of TMB Reagent into each well. Gently mix for 5 seconds. [0171] 9. Incubate at room temperature with mechanical shaking at 750 rpm for 20 minutes. […] 10. Add 100 μL of Stop Solution (1N HCl) into each well. [0173] 11. Gently mix for 10 seconds to ensure a complete mixing. [0174] 12. Read optical density at A450 nm.
(§2) The materials and method are the same as those described in Example 9 except the following.
(§3) Rabbit monoclonal anti-mouse Id3, hybridoma supernatant was used as the test antibody. Protein G purified, rabbit monoclonal anti-mouse/human Id3 antibody, BCH-4/6-1, 0.92 mg/ml in 0.25% BSA was used as positive controls.

The target of experiment [8] is T2, Human Id3: Histidine. The description is as above. As to the method:
as §1, §2, §3

Experiment [9] deals with T3, Mouse Id3: Histidine. Described as above. As to the method:
as §1, §2, §3

Experiment [10] concerns the target T4, Mouse Id2: Histidine. The description is as above. The protocol: as §1, §2, §3
Experiment [11] addresses T5, Human Id1: Histidine. The experiment is described as above. The protocol:
as §1, §2, §3

The target of experiment [12] is T6, Mouse Id1: Histidine. The experiment is described as above. The protocol: as §1, §2, §3
The target in another experiment is T7, Mouse Id4: Histidine (mouse, UniProt P41139 1-161, limits assumed).
T7 construct: Fusion protein made in E. coli from vector pGW07; also called m-Id4: His; not shown: His tag
T7 sequence (looked up): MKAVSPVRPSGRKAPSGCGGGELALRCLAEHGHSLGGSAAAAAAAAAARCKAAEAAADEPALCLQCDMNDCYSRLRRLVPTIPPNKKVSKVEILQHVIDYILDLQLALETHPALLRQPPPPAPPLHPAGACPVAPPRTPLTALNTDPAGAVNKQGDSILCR
The experiment in a line: ELISA on coated wells, summary.

Residue numbers refer to the chain shown, from its start.

Results on two molecules are retold here after patent US20070178531A1 (BIOCHECK, published 2007).

B1: rabbit monoclonal anti-mouse/human Id3, clone #BCH-4/#6-1 (antibody, V domains shown)
VH: QSVEESGGRLVTPGTPLTLTCTASGFSLSNVYIHWVRQAPGKGLEWIGYISDGDTARYATWAKGRFTISKTSSTTVNLKMTSLTTEDTATYFCARQGFNIWGPGTLVTVSL
VL: AVLTQTPSPVSAAVGGTVSISCQSSQSVWNNNWLSWFQQKPGQPPKLLIYETSKLESGVPSRFKGSGSGTQFTLTISDVQCDDAATYYCLGGYWTTSDNNVFGGGTEVVVK
notes: Rabbit IgG from a rabbit hybridoma; also called m/h Id3 MoAb 6-1
As to B1, the A450 with Human Id2: Histidine [1] was found to be 0.086 A450; with Human Id3: Histidine [2], 1.52 A450; with Mouse Id3: Histidine [3], 1.72 A450; in the experiment with Mouse Id2: Histidine [4] it was 0.093 A450; in the experiment with Human Id1: Histidine [5], 0.091 A450; with Mouse Id1: Histidine [6], 0.093 A450. Also, the A450 with Human Id2: Histidine [7] amounted to 2.54 A450; with Human Id3: Histidine [8], 2.69 A450; with Mouse Id3: Histidine [9], 2.81 A450; with Mouse Id2: Histidine [10], 2.44 A450; with Human Id1: Histidine [11], 2.12 A450; with Mouse Id1: Histidine [12], 1.96 A450.

B2: rabbit monoclonal anti-human Id3, clone #BCH-4/#3-3 (antibody, V domains shown)
VH: QSVEESGGRLVTPGTPLTLTCTVSGIDLSSYAMSWVRQAPGKGLEWIGVIFPSNNVYYASWAKGRFTISKTSTTVDLKITSPTTEDTATYFCASMGAFDSWGPGTLVTVSS
VL: QVLTQTPSPVSAAVGGTVTINCQASQSIYNDNDLAWFQQKPGQPPKLLIYDASTLTSGVPSRFKGSGSGTQFTLTISDLDCDDAATYYCAARYSGNIYGFGGGTEVVVK
notes: Rabbit IgG from a rabbit hybridoma; also called h Id3 MoAb 3-3
In the case of B2, the “Cross-reactivity (%)” value with Mouse Id4: Histidine is under 1%.
